This series is described as follows: protease stability score; higher = more stable; yeast display proteolysis, trypsin and chymotrypsin.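 Note: relative to predicted unfolded state with 0 unfolded-like and 1 meaning tenfold more protease.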
With “SEEDKLSEELARRWIHLFETGDEETILHLADPHMKYILIINGRNEIHHGMKMMSEELKRIKGARFEIKRIEVQGDKVHLDVRIRIDGVEIDSEIDLKIVDGRLRELKVTIK”, the protease stability score amounted to 2.07. On to “DERKEHSIKVAKNIFNDILTGDEDRMKEMMDPDVKLHIGDKDVIGRENVIKFMIEEWNHIRFEDFKHKDVRVQGDKAILEGHINVEYGDKHRNVDSRYLVFVIDGRIKSIEIRLH”, for which the protease stability score was 1.39. Next, “DERDEEAHRMTETFYELQRTGDEESTHHLADPHVKFEYLIGDKYFEIHGWDRVLEFWLRYKGVREEIDHRRVRVINGKIHIELIVKIRIGDKTHVHRIELNIEKVDGRWILREVRVEVK”: 1; “DEDEHDAEIWVRLVLKSLRTGDEEFLVKMADPNVRVEVGDKKDHGRNEFRKVVHKFKGVRREIHHVDVHIQGNKAEVEIHGKLNINGVEVHIIHIIRSEKVDGQWYISEVWIIIR”: 1.55. On to “DEHDKFVEEMARRHIRNLVTGDWEEQSRLMDPHVRIEIDINGRKREYHGREDWKYWLDELKRQFDHYEVRLRDFRIQGEYALFRLEESYIIGDKVIEQETELHIDVFNGRIRRVSFSVK”, for which the protease stability score worked out at 0.956. The sequence “SEDHEIIRHYFELLVESFRTGDEETTRRLADPNTRLYFNGKTLHGMEAMLEVLLEIRIEEVELHHVEVINGRVEMDGTVRGIFNGRNQEVKVTFHARKINGVWILNWVEIH” registered a protease stability score of 2.12. Next, “SEIDKHAEDVMRIWEHVHRTGNEDTLSHLLDPDVKVEIHYDGVDIRLHGMELVSEFLTRFAHHARNKDFKEKDLELQGNKIIRTGIVVFDYDGVEIRRWTHEEIRVVNGRFTHIKKEFH”: 0.442. To “DEDEERAQEMAKRLEDSLHTGDEETHQNLMDPHMRLRVNGKEFHGRENILHFLREWRIHHLDVRLRHIDDRGEYIIINSEVRVDGNIDGKRTELHTISEIILVKVDGRWMTDEFRFH” belongs 0.72; to “DEDEEKVEHISKEYFRSFVTGDEDKLRKLLDPNARVYFNGQTVIGRELATKIVLELRNRQVEVDHLHIEYQGDKARLHQITTIDGHINGRDEWFEFHIEVHLRKVNGKWVIQRSEFEIR”, 0.252; to “SEEEHEMERHEREFRDVAETGDERDWTNLADPNVRFEDEDEVLVGREDWHEYVRRVDHFHVRRLDYEHFSVIDGRIDIEGNMDIELNFDGQSHRMRVHVRIITTKINGVWLFESVHIQ”, 1.75. Sequence “DKEEELIRELMEQFTHWLITGNWKKIVDMADPNVQILYNGQEFHGREELHKALQELLEKLGFKHIEIRRKHVVDGRVHLDGRSIINGRRFEVEYISVIINGVIKEIELRVE” yielded a protease stability score of 1.95. In turn, “SEMHEDAEEVLRRISHYLNTGDEDSFLEMADPHTRIRVGNKEYIGREWSLVLIEKVKGARQEIRIELKDVNLVNGRLEVDGRFRLHYRFNGKTVDEHRNVIVYSYKFNGRWEIKSEQVD” came in with a protease stability score of 1.49. Next, “DEETRATKRFLDEVLEARATGDWRTLTRNMDPHYRLEIGEKEVHGMEEVSHMVTEEMVRLGIKHSDLKIKDSRFYNGVLHLDGRLILEVNGVRLESDVTLVELKVNGRWQIRFERWE”: 1.08; “SEDTEKIRKFEELLIRLLETGDFDTLTRLLDPHVRYVYNGQDFHGWEFLLHYLRELGVKHFHFRDFRIQGDWAHIDSEVVVGDKHYKTRIVLLKFDGRWRLHMIEVV”: 2.44; “DEREKHAKDFFDILLHLLLTGDWDKIIRMADPDVKLEIGDKRFHGMEHISETWLKRFTRLGVDHQHFHLHTVKFINGVATIHGRQHLHVGDKTIDLEVIIYVEKIDGRWILNNIEVR”: 1.11. To “EEDEEVAYHFMEEWFHYVHTGNEEMLERMLDPDVKLTFDGKEFHGRETVLRAIIEWRIEHVRIKDFRFKVINGRAEIRLDGERRGQIDGVKRETRIIIEINVHKVDGKWKIERVELHTL” belongs 2.1; to “DEEERAAEEFLRWISKNSRTGDEESFNHLADPNTRVIIGDKVLHGREEWKKFLEEIRIEEIELKDFRIFDGKIRLDVIHTGKVNGRRHEVQVQMIVIKVNGRWIMHSVKFD”, 1.09. “LEEEEETKEMNDKMRHVMETGDEDSFRKLADPHVRVDINGREFHGMDNAAEIMSHLRIHKFHVHDTRNINGKVQVESRLTRIIDGKKQHVRTEWIIVKIDGQWIFREWIVK”: the protease stability score was determined as 0.58. Next, “DELTTLAREFLRLIKEVLETGDERTMHELADPNYRIRIGDKLVHGWEQQSELIIRIRTELGMTVKDSRIEDSHVQGDKLVVRVRLDMIQGDKKDSVDRIVRVDKINGKWIMSEIELI”: 1.49; “RQEEHDMEYAREIVERVLDTGDEHLMEEYFDPNAKLRIGDKEDHGREVFAHWVREIRVRHVQLTDHRLVGDKLEFDIELDININGREHRTKVHLIIRKVNGKWFIQHVEIR”: 1.19. To “NEEEHKLEEEFERLMHLLLTGDEEKLHRLADPNVKVNVNGKDLHGMELFFHVWWEELKRYDYWHITIRHIDSQGNKADSEVELNLVFNGKEIRIDSRMHLEVVNGRIKRIEIRPI” belongs 1.63; to “SEEQTRLEEETRLLIELLTTGNEEEWARMFDPHARVDLHIGDKTIHSIGRENISELVRLLRHWLGVNHNHSTQLRVIDGVSVLHTESKVGDKHSKVTWIFVIVDGRLKTMEIRVRID”, 1.33.

“DEEHDIDRKIFEMIVDVFLTGDWKRWFDNADPDVKTEIRIGDKKIDLHGWEFFLRFLEEELRRFKNIQIMSTDVKLFNGKVDVNIEIRIGDKTQHYIYHIHTFNGVIKHVHVHSK”: the protease stability score worked out at 1.28. “SEHDEHIEHLLKEIIEDIETGDWHHWRHLADPHTRMEVGDKEKHGWKVYFEILHRYRGARLEFKSVDVQGDKIHVETHVHVNGRSFDTELRFYIVNGKMQEVIIQFR” came in with a protease stability score of 0.85. Next, “DDRERDLRELFKRLHEVLETGNEEEMTELIDPHARRTVGDKKIHGRELIAKHLVHEVLRYDHWHLEMHDWRFQGEKIELHGNFRIEVDGKQIVIDTRLTATKVDGRWRITEIRII”: 0.743; “SEQDEMAEKWVHMFLHSWFTGDEDFFETLLDPNVQLIVNGKHHHGREDVKRFLHEEYRRIDHIEDFHLRRLEIQGDFARLDGEVIMIVNGRRHEFRVEIRLFIVNGKMRSIEINEE”: 2.23; “RHEERHLEEKLQRLLHAWLTGDEDELTELADPDVRLKINGQHYIGWEQFFKALTDLRREMRIHDLKIKRKEIDGDKLVLDGETDGEINGVKRLHKTEIIIIMIDGRLRRVEFRQH”: 0.618.

With “SEDIDIAREMADIIIKYWETGDEDNVRQLMDPNVKFHIGDKVNIGREWMLEFVRHWKEHARMHLKVEDFRIVGDKIHVDTRIELNVNGREMHIDLHIHLRIVNGRLKSSHIEHR”, the protease stability score worked out at 1.19. Next, “DEEEDKLRKFADHFWHLRLTGDFDIWEHLADPDTKENQGEYSNIGREHISEYNLRETRKFKNIRMHIRRKTIQGDKIKIDGVLIFNGVEIEVILILIVINGRIREVRVHIE”: 1.6. Take “SELHKHVKHLAEHFWHLLETGDWEKMTKNADPNDRLDIHIGDKDIHNHGRERSLKTWTELEREMGIDHLTLRHRDLQGDKVIIHTESVFDGRHVKVEIIVVVINGRLKRVEVRFE”: the protease stability score was 0.767. For “DQDDHMAKEFHKLFFDAIRTGDEDLLSMLLDPHVLMNIGNFHRHGRELVVDMQRHLYEKHGFRIHNAHVERWHIFENRLIYHLKVDGKVDGKRHVMEFDLTILKVDGVWIITSITIK”, the protease stability score was determined as 1.44. Next, “SEEEEESRKMLELFKELLETGDEEDMTKLADPNVRIIYDGKHLHGRHVAHDVWHELSNRVKNAKFHFDVIKIVGEKVILEITIHVDGQDIESSTILDKFNGKWYMEEVFFH”: 1.92; “DEEEELVRLATEHSLELMRTGDWSHLHKLMDPHALLSVNGREVHGRENAVRLIITILEDLGVKHFHLEHVEVIDGRVNIDGRLHQGDKKLNNEIWLVKINGRWRLKSIHIELK”: 1.17; “KEEEEKLERLAELVIELFLTGDWKTLHSLLDPHYRSEIDGRTVHGRESHQTLLEEILRHLRIRRVHIEEYRIIDGVAWIDSRITLEINGRTVDTHMHIHLEFFNGRLHSIRVEIH”: 2.47. To “EEEEEHMEHMMRLTLQLFKTGDEETFIDLLDPNVKVHINGVTVHGWDRLIRVKEMIDKEIRFRDFIIHHIRVVDGRAEMEGTVTGDVNGQSRIRDWRSILVVIDGKIKSISWQFN” belongs 2.27; to “SEDEHDARLAIRLLLEALRTGDERIMEELLDPNVRFDINGKEFHGRKYVSEWLHRVDHIESRFELRDVHLFDGRIEVRGILRLHIDVNGKIDDQEKDIVLFVNKVDGRWIVHSWEIH”, 1.33; to “SEEEEEIRRTIEMLLKAWQTGDEEFWMRLFDPHYRFEINGKVYHGREVMRLERRRIDYIHRVEYRIDHIDTQGDKVIIRFTLHLDVEFDGVRTELHEHRVIIIEKVNGQWRLKSVEIE”, 1.46. On to “DEDLKLMLTLTHLWLHAVATGDEDLQTKLADPDVRFIFNGRIIHGMDEWRRFLKELRIKIEDTDHKDSDLYGEKLHIDGHIVIRIHVGEKNERIDTRVHIHVLVINGKLKSVKIETR”, for which the protease stability score came out at 2.13. To “SEEEEWIRRALEILIEIIRTGDEDSSKRYVDPHVRLHIGDKEFHGREDFTRMVHELFNRVDHIEIRIHDMRIINGQAHVDTELILRQGDKEIVLRTEIVLLKFDGKWIMESVHIR” belongs 1.29; to “DEHHRLARDFWKMLADILKTGDEEIFRDLADPDTRMIQGDKLYHGRELISRELVRQVKEWRLHDFELHHIDEVNGRLLVDSRLVGHFDGRHYLMHVRIFMHKVDGRWVLHEMHYE”, 1.38; to “TEEDRFAHEFVRKWIENFLTGNEEKLHELADPNMKIDVGDKHLHGMEEWTRFLRDLGWRTEIRLRDIEVQGNKAFIRGEVHISINGRTDKTETRIILHVVNGRLKEVYVHHQ”, 1.53.

For “SEEHKLLRETLEILWDTIETGDEHKLSNLLDPRARLRVGDKEYHGREEVMRIMTEIRVDRFRLHSITLVDGRAIIHTEIDVRVNGQRFRTSVTIFLIKVDGRWFVESLQID”, the protease stability score was found to be 2.4. Next, “DREEKQAEEVATEIIRALLTGDEKWLLHLIDPNVRWIMDVNGKELTLHGWHELIKKFRDDFRHLGVERFHVHVKDWDIQGDKMHLRVTFHIDGKTFDYELIIIVINGRITSMEVREH”: 2; “SELEEITEKAIRMDLQHEETGDWKKYSDMIDPHARFIVNGVEFVGRHFLLKWFLDVAKRVDHSRMHVDHEEHVDGRIHVDFRFELIFDGREYRIRSHIVADKIDGQWYFRQIRFQ”: 1.29; “SELHEEIHKMVQEFLELFLTGDFHRIKQLMDPNVKLIYGDKLFHGRENVEKLHEELRWRYKNATIHVDLREITIFENRAVTDTSIEFDVNGKHISHETKVIIEKIDGQWVIKSIYIN”: 2.13. On to “SETEKFAEIALKLWIRRLRTGDEHEESMLADPNTLYVQGDKNIHGMERISRFFKEILTRHGITFNHFHLEHIEVQGNKVRLDLRVDGEFDGQRMNQEVELISIKVDGRWFLESVIIR”, for which the protease stability score was determined as 1.62. On to “DERHEHVREMSHRMEEWFETGDEDKWVKNADPNVITDINGQKLHGRENAARFLLHYHNRFKGMRFDIEDVDIQGEKVHIHSVQHFDGVKFDVRLIFEVFDGVIKSMHVEVK”, for which the protease stability score was 0.706.

The values above are taken from the NTF2 design screens of Basanta et al. (2020).
